According to patent publication US20040018971A1 (published 2004):
Where no end group is shown, it is not given here. [ ]: non-standard residue; d: D form. Abu = CC[C@H](N)C(=O)O

B1: Her2/neu.600 (peptide)
peptide: CPSGVKPDLSY
notes: native HER2/neu peptide from position 600
B2: Her2/neu.528.B1B4 (peptide)
peptide: [Abu]VN[Abu]SQFLR
notes: synthetic analog peptide; also called BVNBSQFLR
B3: Her2/neu.528.B1B4K9 (peptide)
peptide: BVNBSQFLK
modifications: B at positions 1 and 4 = alpha-amino butyric acid (in place of cysteine)
notes: synthetic analog peptide; also called BVNBSQFLK
B4: Her2/neu.218.B3B7 (peptide)
peptide: TV[Abu]AGG[Abu]AR
notes: synthetic analog peptide; also called TVBAGGBAR
B5: Her2/neu.65 (9-mer) (peptide)
peptide: LPTNASLSF
notes: native HER2/neu peptide from position 65

Legend:
HLA-A*0301 [1] = molecular target: HLA-A*0301 (human); assay: inhibition of 125I probe peptide binding to purified HLA
HLA-A*3101 = HLA-A*3101 (human); assay: as above
HLA-A*3301 = HLA-A*3301 (human); assay: as above
HLA-A*1101 = HLA-A*1101 (human); assay: as above
HLA-A*6801 = HLA-A*6801 (human); assay: as above
HLA-A*0301 [2] = molecular target: T1, HLA-A*0301 (human); assay: competition with 125I-labelled probe peptide on purified HLA-A*0301, gel filtration; ratio to standard peptide 941.12
T1 construct: Purified HLA molecule, 5 to 500 nM in the assay; also called HLA-A3

HLA-A*0201 = molecular target: T2, HLA-A*0201 (human); assay: competition with 125I-labelled standard peptide for purified HLA-A*0201, gel filtration; ratio to the standard peptide
T2 construct: Purified HLA class I molecule; also called HLA-A2.1

HLA-B*0702 = HLA-B*0702 (human); assay: competition with 125I probe peptide, purified HLA
HLA-B*3501 = HLA-B*3501 (human); assay: competition with 125I probe peptide, purified HLA
HLA-B*5101 = HLA-B*5101 (human); assay: competition with 125I probe peptide, purified HLA
HLA-B*5301 = HLA-B*5301 (human); assay: competition with 125I probe peptide, purified HLA

Binder | IC50 (HLA-A*0301 [1]) [µM] | IC50 (HLA-A*3101) [µM] | IC50 (HLA-A*3301) [µM] | relative binding ratio (IC50 of standard peptide / IC50 of test peptide) (HLA-A*0201) [ratio] | also measured
ILKGGVLIQR (synthetic peptide) [Her2/neu.148] | 0.275 | 0.025 | 0.121 | – | –
IVKGGVLIQK (synthetic analog peptide) [Her2/neu.148.V2K10] | 0.026 | 0.45 | 6.59 | – | IC50 (HLA-A*1101): 0.102 µM; IC50 (HLA-A*6801): 0.027 µM
WMALESILRR [HER2/neu peptide, position 888, 10 amino acids] | – | – | – | – | relative binding ratio (IC50 of standard peptide / IC50 of test peptide) (HLA-A*0301 [2]): 0.0085 relative binding ratio
VVQGNLELTY [HER2/neu peptide, position 55, 10 amino acids] | – | – | – | – | relative binding ratio (IC50 of standard peptide / IC50 of test peptide) (HLA-A*0301 [2]): 0.0024 relative binding ratio
QLRSLTEILK (synthetic peptide) [Her2/neu.141] | 0.055 | 0.667 | 6.17 | – | –
CVNCSQFLR (synthetic peptide) [Her2/neu.528] | 7.33 | 0.034 | 0.05 | – | IC50 (HLA-A*1101): 0.194 µM; IC50 (HLA-A*6801): 0.018 µM
DLVDAEEYLV (Synthetic peptide) [HER2/neu peptide, position 1016, 10 amino acids] | – | – | – | 0.0002 | –
DLVDAEEYL (Synthetic peptide) [HER2/neu peptide, position 1016, 9 amino acids] | – | – | – | 0.0002 | –
YLEDVRLVHR [HER2/neu peptide, position 835, 10 amino acids] | – | – | – | – | relative binding ratio (IC50 of standard peptide / IC50 of test peptide) (HLA-A*0301 [2]): 0.0003 relative binding ratio
FPTNASLSFL (analog peptide) [Her2/neu.65.F1 (10-mer)] | – | – | – | – | IC50 (HLA-B*0702): 0.018 µM; IC50 (HLA-B*3501): 0.2 µM; IC50 (HLA-B*5101): 0.262 µM; IC50 (HLA-B*5301): 0.172 µM
VLIAHNQVR [HER2/neu peptide, position 84, 9 amino acids] | – | – | – | – | relative binding ratio (IC50 of standard peptide / IC50 of test peptide) (HLA-A*0301 [2]): 0.0033 relative binding ratio
TVLWKDIFHR (synthetic analog peptide) [Her2/neu.166.V2R10] | 8.46 | 0.6 | 0.076 | – | IC50 (HLA-A*1101): 0.286 µM; IC50 (HLA-A*6801): 0.042 µM
WIPDGENVK [HER2/neu peptide, position 739, 9 amino acids] | – | – | – | – | relative binding ratio (IC50 of standard peptide / IC50 of test peptide) (HLA-A*0301 [2]): 0.0002 relative binding ratio
GAAKGLQSL (Synthetic peptide) [HER2/neu peptide, position 1093, 9 amino acids] | – | – | – | 0.0001 | –
VTGASPGGLR [HER2/neu peptide, position 129, 10 amino acids] | – | – | – | – | relative binding ratio (IC50 of standard peptide / IC50 of test peptide) (HLA-A*0301 [2]): 0.0002 relative binding ratio
ELGSGLALI (Synthetic peptide) [HER2/neu peptide, position 460, 9 amino acids] | – | – | – | 0.0004 | –
WMIDSECRPR [HER2/neu peptide, position 959, 10 amino acids] | – | – | – | – | relative binding ratio (IC50 of standard peptide / IC50 of test peptide) (HLA-A*0301 [2]): -0.0002 relative binding ratio
GAMPNQAQM (T0001 prints N at position 706) [HER2/neu peptide, position 704, 9 amino acids] | – | – | – | 0.0002 | –
VLQGLPREY [HER2/neu peptide, position 546, 9 amino acids] | – | – | – | – | relative binding ratio (IC50 of standard peptide / IC50 of test peptide) (HLA-A*0301 [2]): 0.0012 relative binding ratio
B1 | – | – | – | – | IC50 (HLA-B*0702): 0.183 µM; IC50 (HLA-B*3501): 3.6 µM
FPSGVKPDLSI (analog peptide) [Her2/neu.600.F1I11] | – | – | – | – | IC50 (HLA-B*0702): 0.196 µM; IC50 (HLA-B*3501): 3.27 µM
IVWLGLRSLR (synthetic analog peptide) [Her2/neu.450.V2] | 0.234 | 0.011 | 0.193 | – | IC50 (HLA-A*1101): 1.94 µM; IC50 (HLA-A*6801): 0.0073 µM
ISWLGLRSLR (synthetic peptide) [Her2/neu.450] | 0.268 | 0.0069 | 0.223 | – | IC50 (HLA-A*6801): 0.073 µM
DLLNWCMQI (Synthetic peptide) [HER2/neu peptide, position 821, 9 amino acids] | – | – | – | 0.0002 | –
TILWKDIFHK (synthetic peptide) [Her2/neu.166] | 0.256 | 0.487 | 0.69 | – | IC50 (HLA-A*1101): 0.0017 µM; IC50 (HLA-A*6801): 0.2 µM

Binder | IC50 (HLA-A*0301 [1]) [µM] | IC50 (HLA-A*3101) [µM] | IC50 (HLA-A*3301) [µM] | relative binding ratio (IC50 of standard peptide / IC50 of test peptide) (HLA-A*0201) [ratio] | also measured
FVHTVPWDQL (Synthetic peptide) [HER2/neu peptide, position 476, 10 amino acids] | – | – | – | 0.0001 | –
B2 | 0.177 | 0.038 | 0.058 | – | IC50 (HLA-A*1101): 0.08 µM; IC50 (HLA-A*6801): 0.01 µM
B3 | 0.034 | 0.06 | 4.26 | – | IC50 (HLA-A*1101): 0.022 µM; IC50 (HLA-A*6801): 0.015 µM
VLVKSPNHVK [HER2/neu peptide, position 851, 10 amino acids] | – | – | – | – | relative binding ratio (IC50 of standard peptide / IC50 of test peptide) (HLA-A*0301 [2]): 0.082 relative binding ratio
WMALESILR [HER2/neu peptide, position 888, 9 amino acids] | – | – | – | – | relative binding ratio (IC50 of standard peptide / IC50 of test peptide) (HLA-A*0301 [2]): -0.0002 relative binding ratio
HVVPWDQLFR (synthetic analog peptide) [Her2/neu.478.V2] | 7.33 | 0.391 | 0.193 | – | IC50 (HLA-A*1101): 1.33 µM; IC50 (HLA-A*6801): 0.0036 µM
HTVPWDQLFR (synthetic peptide) [Her2/neu.478] | 3.14 | 0.019 | 0.088 | – | IC50 (HLA-A*1101): 0.083 µM; IC50 (HLA-A*6801): 0.004 µM
B4 | 0.314 | 0.247 | 0.242 | – | IC50 (HLA-A*1101): 0.111 µM; IC50 (HLA-A*6801): 0.008 µM
YVLIAHNQVR [HER2/neu peptide, position 83, 10 amino acids] | – | – | – | – | relative binding ratio (IC50 of standard peptide / IC50 of test peptide) (HLA-A*0301 [2]): 0.0043 relative binding ratio
ELAALCRWGL (Synthetic peptide) [HER2/neu peptide, position 2, 10 amino acids] | – | – | – | 0.0001 | –
YVMAGVGSPY [HER2/neu peptide, position 772, 10 amino acids] | – | – | – | – | relative binding ratio (IC50 of standard peptide / IC50 of test peptide) (HLA-A*0301 [2]): 0.01 relative binding ratio
EILKGGVLI (Synthetic peptide) [HER2/neu peptide, position 147, 9 amino acids] | – | – | – | 0.0001 | –
DLSVFQNLQV [HER2/neu peptide, position 421, 10 amino acids] | – | – | – | 0.0003 | –
ELVSEFSRMA (Synthetic peptide) [HER2/neu peptide, position 971, 10 amino acids] | – | – | – | 0.0001 | –
FVVIQNEDL (Synthetic peptide) [HER2/neu peptide, position 986, 9 amino acids] | – | – | – | 0.0002 | –
DVWSYGVTV (Synthetic peptide) [HER2/neu peptide, position 904, 9 amino acids] | – | – | – | 0.0002 | –
B5 | – | – | – | – | IC50 (HLA-B*3501): 0.114 µM; IC50 (HLA-B*5101): 0.809 µM; IC50 (HLA-B*5301): 0.034 µM
VSEFSRMAR [HER2/neu peptide, position 973, 9 amino acids] | – | – | – | – | relative binding ratio (IC50 of standard peptide / IC50 of test peptide) (HLA-A*0301 [2]): -0.0002 relative binding ratio
VTAEDGTQR [HER2/neu peptide, position 322, 9 amino acids] | – | – | – | – | relative binding ratio (IC50 of standard peptide / IC50 of test peptide) (HLA-A*0301 [2]): 0.0002 relative binding ratio
DVFAFGGAV (Synthetic peptide) [HER2/neu peptide, position 1183, 9 amino acids] | – | – | – | 0.0002 | –
GAFGTVYKGI (Synthetic peptide) [HER2/neu peptide, position 729, 10 amino acids] | – | – | – | 0.0001 | –
IVWKDIFHK (synthetic analog peptide) [Her2/neu.167.V2] | 0.023 | 0.247 | 0.853 | – | IC50 (HLA-A*1101): 0.04 µM
IVWKDIFHR (synthetic analog peptide) [Her2/neu.167.V2R9] | 0.143 | 0.006 | 0.016 | – | IC50 (HLA-A*1101): 0.286 µM; IC50 (HLA-A*6801): 0.015 µM
ILWKDIFHK (synthetic peptide) [Her2/neu.167] | 0.039 | 0.082 | 0.967 | – | IC50 (HLA-A*1101): 0.019 µM; IC50 (HLA-A*6801): 1.74 µM
DVRLVHRDL (Synthetic peptide) [HER2/neu peptide, position 838, 9 amino acids] | – | – | – | 0.0002 | –
